Substitutions are numbered along the chain they refer to. Names and notes keep the numbering of the source.
Key:
[1] = test system: Azospirillum brasilense phenylpyruvate decarboxylase (AbPPDC); details: Spaepen et al., J. Bacteriol., 2007; cited from earlier work
[2] = substrate: CCCCCCCC(=O)C(=O)O; experiment: HTP AbPPDC coupled enzyme assay (ADH6/NADPH), 2-ketoacid decarboxylation kinetics, F532V; type: biochemical, Azospirillum brasilense; details: other: pH 6.8, 30° C, 2-ketoacid 0 to 4 mM, Hill equation, mean ± standard error
Procedure: (§1) The evaluation of the AbPPDC variants is performed in two steps using the high-throughput enzyme assay described hereinbelow. Initially, all the variants are tested for activity against a single high concentration (2 mM) of 2-KH and 2-KN (as shown in Table 1). Following the initial evaluation, detailed kinetic analysis is performed on a select number of variants to determine the maximal rate (kcat), substrate concentration yielding half maximal rate (K0.5, equivalent of KM for enzymes following Michaelis-Menten kinetics), and the catalytic efficiency of the enzyme (kcat/K0.5) against 2-KO and 2-KN (as shown in Table 2). AbPPDC variants, having higher specificity (higher kcat/K0.5) for 2-KN, will be efficient in producing octanal and chemicals derived from it inside the cells.
(§2) To evaluate the substrate specificity of the wild type AbPPDC and its variants listed in Table 1, genes of all the proteins are expressed in E. coli cells separately and the protein products are isolated from the cells. The gene sequence of the Azospirillum brasilense phenylpyruvate decarboxylase (GenBank: Accession no. L26240) is downloaded from the NCBI database. Codons of 13 additional amino acids that include six (6) histidines (his) are added upstream of the Met-1 codon of the AbPPDC gene sequence. Such a modification allows expression of a Histidine-tagged AbPPDC having 13 additional amino acids on the N-terminus. The additional amino acids are attached as an aid for purifying the protein in a single step using Ni-NTA chromatography. The entire AbPPDC sequence with 13 additional amino acids (SEQ ID 2) is chemically synthesized and then cloned into the pRSFDuet-1 vector (EMD Biosciences) downstream of the T7 polymerase promoter by Synthetic Genomics, Inc. (San Diego, Calif.). The final vector is sequenced by Synthetic Genomics, Inc. before shipping.
(§3) Genes of the AbPPDC variants listed in Table 1 are either chemically synthesized or generated using New England Biolab's Q5 Site-directed Mutagenesis Kit (cat. no. E0554S) and cloned into the pRSFDuet-1 vector. The pRSFDuet-1 vector containing AbPPDC or the AbPPDC variant gene is transformed into E. coli, AbPPDC or its variant, then expressed and eventually purified, as described below.
(§4) A high-throughput AbPPDC coupled enzyme assay is developed for evaluating the substrate specificity of AbPPDC variants. The assay involves reducing the aldehyde produced from AbPPDC mediated 2-ketoacid decarboxylation, using an alcohol dehydrogenase (ADH6, GenBank: Accession No. NP 014051.3). The initial velocities of the AbPPDC catalyzed reactions are determined from the rates of oxidation of reduced nicotinamide adenine dinucleotide phosphate (NADPH) occurring during the ADH6 catalyzed reduction of aldehyde.
(§5) The HTP screening assay involves incubating 2 mM 2-KH or 2 mM 2-KN with 0.5 mM thiamine diphosphate, 0.35 mM NADPH, 4.7 micrograms (μg) of yeast ADH6 (GenBank: Accession No. NP 014051.3) and 0.3 milligrams per milliliter (mg/mL) bovine serum albumin (BSA) in AbPPDC assay buffer (50 mM 3-(N-morpholino)propanesulfonic acid, pH 6.8, containing 2.5 mM magnesium chloride (MgCl2)) at 30° C. The reaction is started by addition at 30° C. of working enzyme stock containing from 0.5 μg to 3.5 μg of AbPPDC variant diluted in AbPPDC assay buffer containing 1 mg/mL BSA. The plate containing the 200 μL of reaction mixture is centrifuged at 2500×g for 15 sec and the absorbance change of the reaction mixture followed spectrophotometrically at 340 nm on a BioTek™ plate reader, pre-equilibrated at 30° C. Initial velocity of the enzyme reaction is calculated using the rate of NADPH consumption at 340 nm and the extinction coefficient of NADPH (6.22 mM^−1 cm^−1). The activity of all the variants is normalized with the amount of enzyme present in the reaction mixture and expressed as nanomoles per minute per milligram (nmol·min^−1·mg^−1). […]

[3] = substrate: CCCCCCC(=O)C(=O)O; experiment: as above; type: biochemical, Azospirillum brasilense; details: other: pH 6.8, 30° C, 2-ketoacid 0 to 4 mM, Hill equation, mean ± standard error
Procedure: as §1, §2, §3, §4, §5

[4] = substrate: CCCCCCCC(=O)C(=O)O; experiment: HTP AbPPDC coupled enzyme assay (ADH6/NADPH), 2-ketoacid decarboxylation kinetics, Q536G; type: biochemical, Azospirillum brasilense; details: other: pH 6.8, 30° C, 2-ketoacid 0 to 4 mM, Hill equation, mean ± standard error
Procedure: as §1, §2, §3, §4, §5

[5] = substrate: CCCCCCC(=O)C(=O)O; experiment: as above; type: biochemical, Azospirillum brasilense; details: other: pH 6.8, 30° C, 2-ketoacid 0 to 4 mM, Hill equation, mean ± standard error
Procedure: as §1, §2, §3, §4, §5

[6] = substrate: CCCCCCCC(=O)C(=O)O; experiment: HTP AbPPDC coupled enzyme assay (ADH6/NADPH), 2-ketoacid decarboxylation kinetics, Q536I; type: biochemical, Azospirillum brasilense; details: other: pH 6.8, 30° C, 2-ketoacid 0 to 4 mM, Michaelis-Menten equation, mean ± standard error
Procedure: as §1, §2, §3, §4, §5

[7] = substrate: CCCCCCC(=O)C(=O)O; experiment: as above; type: biochemical, Azospirillum brasilense; details: other: pH 6.8, 30° C, 2-ketoacid 0 to 4 mM, Michaelis-Menten equation, mean ± standard error
Procedure: as §1, §2, §3, §4, §5

[8] = substrate: CCCCCCCC(=O)C(=O)O; experiment: HTP AbPPDC coupled enzyme assay (ADH6/NADPH), 2-ketoacid decarboxylation kinetics, F532L; type: biochemical, Azospirillum brasilense; details: other: pH 6.8, 30° C, 2-ketoacid 0 to 4 mM, Hill equation, mean ± standard error
Procedure: as §1, §2, §3, §4, §5

[9] = substrate: CCCCCCC(=O)C(=O)O; experiment: as above; type: biochemical, Azospirillum brasilense; details: other: pH 6.8, 30° C, 2-ketoacid 0 to 4 mM, Hill equation, mean ± standard error
Procedure: as §1, §2, §3, §4, §5

For `O=C(O)C(=O)Cc1ccccc1` [phenylpyruvic acid], the catalytic efficiency [1] is listed as “high catalytic efficiencies”.

B1: Azospirillum brasilense phenylpyruvate decarboxylase (AbPPDC) variant F532V, SEQ ID 28 (Azospirillum brasilense; F532V) (protein)
chain: MKLAEALLRALKDRGAQAMFGIPGDFALPFFKVAEETQILPLHTLSHEPAVGFAADAAARYSSTLGVAAVTYGAGAFNMVNAVAGAYAEKSPVVVISGAPGTTEGNAGLLLHHQGRTLDTQFQVFKEITVAQARLDDPAKAPAEIARVLGAARALSRPVYLEIPRNMVNAEVEPVGDDPAWPVDRDALAACADEVLAAMRSATSPVLMVCVEVRRYGLEAKVAELAQRLGVPVVTTFMGRGLLADAPTPPLGTYIGVAGDAEITRLVEESDGLFLLGAILSDTNFAVSQRKIDLRKTIHAFDRAVTLGYHTYADIPLAGLVDALLEGLPPSDRTTRGKEPHAYPTGLQADGEPIAPMDIARAVNDRVRAGQEPLLIAADMGDCLFTAMDMIDAGLMAPGYYAGMGFGVPAGIGAQCVSGGKRILTVVGDGAFQMTGWELGNCRRLGIDPIVILFNNASWEMLRTFQPESAFNDLDDWRFADMAAGMGGDGVRVRTRAELKAALDKAFATRGRFQLIEAMIPRGVLSDTLARVVQGQKRLHAAPRE
notes: made in house; host or cells: E. coli BL21(DE3)
Work on B1 yielded a K0.5 [2] of 0.89 ± 0.15 mM, a kcat [2] of 0.383 ± 0.033 s⁻¹ and a kcat/Km [2] of 450 ± 83 M⁻¹ s⁻¹. The K0.5 [3] was 2.0 ± 0.1 mM, the kcat [3] was 0.163 ± 0.0033 s⁻¹ and the kcat/Km [3] was 80 ± 3.3 M⁻¹ s⁻¹.

B2: Azospirillum brasilense phenylpyruvate decarboxylase (AbPPDC) variant Q536G, SEQ ID 32 (Azospirillum brasilense; Q536G) (protein)
chain: B1 chain with V532F, Q536G
notes: as for B1
Molecule B2 has a K0.5 [4] of 0.76 ± 0.02 mM, a kcat [4] of 0.35 ± 0 s⁻¹ and a kcat/Km [4] of 467 ± 17 M⁻¹ s⁻¹. The K0.5 [5] was 1.9 ± 0.2 mM, the kcat [5] was 0.183 ± 0.013 s⁻¹ and the kcat/Km [5] was 96.7 ± 10 M⁻¹ s⁻¹.

B3: Azospirillum brasilense phenylpyruvate decarboxylase (AbPPDC) variant Q536I, SEQ ID 38 (Azospirillum brasilense; Q536I) (protein)
chain: B1 chain with V532F, Q536I
notes: as for B1
B3 gave a K0.5 [6] of 0.69 ± 0.09 mM, a kcat [6] of 1.05 ± 0.05 s⁻¹ and a kcat/Km [6] of 1530 ± 217 M⁻¹ s⁻¹. It also gave a K0.5 [7] of 0.71 ± 0.07 mM, a kcat [7] of 0.533 ± 0.0183 s⁻¹ and a kcat/Km [7] of 750 ± 83 M⁻¹ s⁻¹.

B4: Azospirillum brasilense phenylpyruvate decarboxylase (AbPPDC) variant F532L, SEQ ID 30 (Azospirillum brasilense; F532L) (protein)
chain: B1 chain with V532L
notes: as for B1
For B4, the K0.5 [8] was 0.94 ± 0.27 mM, the kcat [8] was 0.5 ± 0.083 s⁻¹ and the kcat/Km [8] was 583 ± 200 M⁻¹ s⁻¹. The K0.5 [9] was 1.6 ± 0.1 mM, the kcat [9] was 0.217 ± 0.005 s⁻¹ and the kcat/Km [9] was 137 ± 5 M⁻¹ s⁻¹.

— patent US10260060B2, “Genetically modified phenylpyruvate decarboxylase, processes to prepare, and uses thereof” (Dow Global Technologies LLC, priority 2014, dated 2019)
